This note sets out measurements from patent publication US20200017592A1 (Regeneron, published 2020).

By Kd is commonly meant the concentration at which binding is half-saturated. As usually defined, the koff is a measure of how fast the partners let go of each other. By kon is commonly meant the second-order rate constant of association. The t½ is how long it takes for the measured level to halve.

Assay [1] addresses T1, full-length human IL-36R on cells (human, UniProt Q9HB29 20-575).
T1 sequence (looked up): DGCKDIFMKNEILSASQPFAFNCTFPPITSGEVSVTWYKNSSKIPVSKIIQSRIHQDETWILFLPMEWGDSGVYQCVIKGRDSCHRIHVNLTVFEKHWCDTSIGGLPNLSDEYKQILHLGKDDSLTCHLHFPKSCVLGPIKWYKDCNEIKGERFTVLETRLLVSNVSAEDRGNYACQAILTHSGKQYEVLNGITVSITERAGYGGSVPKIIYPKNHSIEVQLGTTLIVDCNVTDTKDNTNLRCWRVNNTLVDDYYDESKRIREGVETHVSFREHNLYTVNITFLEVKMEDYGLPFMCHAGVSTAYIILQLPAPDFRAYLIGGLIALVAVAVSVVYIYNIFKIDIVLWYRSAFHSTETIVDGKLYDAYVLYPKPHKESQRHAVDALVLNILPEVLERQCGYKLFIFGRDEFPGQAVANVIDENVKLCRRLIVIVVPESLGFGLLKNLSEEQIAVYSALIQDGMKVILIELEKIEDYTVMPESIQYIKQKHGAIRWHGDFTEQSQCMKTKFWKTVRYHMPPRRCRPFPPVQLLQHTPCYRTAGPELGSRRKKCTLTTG
In words: cell-based or functional assay.

The target of assay [2] is T2, recombinant human IL-36R extracellular domain expressed with a C-terminal myc-myc-hexahistidine tag (human, UniProt Q9HB29 20-337).
T2 construct: also called hIL-36R-MMH; hIL-36R.mmH
T2 sequence (Q9HB29 other isoform, or with tags, fused parts or gaps limits assumed): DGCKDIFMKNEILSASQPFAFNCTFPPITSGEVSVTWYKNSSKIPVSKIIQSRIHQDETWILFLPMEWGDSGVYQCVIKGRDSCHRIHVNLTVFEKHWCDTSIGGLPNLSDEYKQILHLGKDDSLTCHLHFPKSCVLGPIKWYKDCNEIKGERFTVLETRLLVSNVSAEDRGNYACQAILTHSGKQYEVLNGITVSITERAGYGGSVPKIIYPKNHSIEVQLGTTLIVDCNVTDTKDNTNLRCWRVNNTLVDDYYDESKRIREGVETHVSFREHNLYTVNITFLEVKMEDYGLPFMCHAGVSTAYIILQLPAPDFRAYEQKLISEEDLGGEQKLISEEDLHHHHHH
The assay is described as follows: SPR (Biacore 4000), mAb captured on anti-human Fc, 25°C. In short, it runs like this:
(§1)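 Sensorgrams recorded over captured antibody were fitted globally to a 1:1 binding model to give ka and kd, from which KD and dissociative half-life were calculated. Analyte series spanned 100 nM to 3.7 nM in 3-fold steps, in HBS-ET (Hepes pH 7.4, 3 mM EDTA, 0.05% Tween-20).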
(In general: In SPR one partner is held on a chip, and binding of the other changes the refractive index at the surface.)

Assay [3] concerns the target T3, Macaca fascicularis IL-36R on cells (Macaca fascicularis, UniProt A0A2K5WSK9 20-558).
T3 sequence: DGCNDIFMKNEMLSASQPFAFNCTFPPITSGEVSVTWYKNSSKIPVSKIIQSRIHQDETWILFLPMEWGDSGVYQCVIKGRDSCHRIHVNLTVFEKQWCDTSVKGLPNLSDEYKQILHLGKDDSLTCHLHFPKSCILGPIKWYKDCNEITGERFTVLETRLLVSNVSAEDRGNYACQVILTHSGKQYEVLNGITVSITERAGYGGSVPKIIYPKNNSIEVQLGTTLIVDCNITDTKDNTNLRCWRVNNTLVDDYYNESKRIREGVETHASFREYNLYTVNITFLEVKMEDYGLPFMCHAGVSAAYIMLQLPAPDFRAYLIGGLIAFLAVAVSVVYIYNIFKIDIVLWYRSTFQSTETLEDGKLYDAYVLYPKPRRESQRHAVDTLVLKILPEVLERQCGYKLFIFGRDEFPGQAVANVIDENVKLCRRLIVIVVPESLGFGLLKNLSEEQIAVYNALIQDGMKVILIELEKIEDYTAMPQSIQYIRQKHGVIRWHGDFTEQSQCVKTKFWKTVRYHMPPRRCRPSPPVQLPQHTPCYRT
The assay is described as follows: cell-based or functional assay.

In assay [4] the target is T1, full-length human IL-36R on cells. In words: cell-based or functional assay. This is another data set of the same source.
For assay [5], the target named is T2, recombinant human IL-36R extracellular …. In words: SPR (Biacore 4000), mAb captured on anti-human Fc, 37°C. The gist of the method:
as §1

Assay [6] has as its target T4, human IL-36R (IL1RL2) on primary human cells (human, UniProt Q9HB29 20-575).
T4 sequence (looked up): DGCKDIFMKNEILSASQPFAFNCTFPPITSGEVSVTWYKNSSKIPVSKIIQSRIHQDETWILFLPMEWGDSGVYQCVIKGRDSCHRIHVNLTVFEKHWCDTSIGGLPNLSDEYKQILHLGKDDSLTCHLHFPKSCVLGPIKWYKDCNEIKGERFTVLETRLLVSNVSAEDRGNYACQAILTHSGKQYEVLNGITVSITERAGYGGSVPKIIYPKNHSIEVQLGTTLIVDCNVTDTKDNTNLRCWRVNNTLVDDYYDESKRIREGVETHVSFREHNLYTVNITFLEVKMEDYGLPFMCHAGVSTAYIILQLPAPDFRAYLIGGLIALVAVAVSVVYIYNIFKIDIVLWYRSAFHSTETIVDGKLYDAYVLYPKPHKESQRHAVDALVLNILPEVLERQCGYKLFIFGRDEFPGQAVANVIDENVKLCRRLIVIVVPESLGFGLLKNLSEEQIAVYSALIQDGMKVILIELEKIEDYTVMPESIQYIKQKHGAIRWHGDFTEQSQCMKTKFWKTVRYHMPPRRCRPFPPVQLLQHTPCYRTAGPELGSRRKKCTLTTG
In words: cell-based or functional assay.

B1: H4H14706P2 (antibody, human IgG4 S228P, kappa, V domains shown)
VH: EVQLVESGGGLVQPGRSLRLSCTASGFTFDDYAIHWVRQSPGKGLEWVSVISWNSDVIGYADSVKGRFTISRDNAKNSLYLQMNSLRAEDTALYYCAKGYNWNFFDYWGQGTLVTVSS
VL: EIVLTQSPATLSLSPGERATLSCRASQSVSSYLAWYQQKPGQAPRLLIYNAANRATDIPARFSGSGSGTDFTLTISSLEPEDFAVYYCQQRSNWPLTFGGGTKVEIKR
With B1, the “IC50, IL-8 production of primary human cells stimulated with 10 nM IL-36α, β and γ” value in assay [1] lay in the range of 1 to 6 nM. In assay [2], the “100 nM hIL-36R-MMH Bound (RU)” value was 89 RU, the Kd is 4.08 nM, the koff is 0.000495 s⁻¹ and the kon was found to be 121000 M⁻¹ s⁻¹. Further, the “t½” value in assay [2] stood at 23 min. In assay [3], the “IC50 [M], NFκB-luciferase, 300 pM hIL-36γ” value came out at 8.5e-11 M; the “IC50 [M], NFκB-luciferase, 500 pM hIL-36α” value came out at 6e-11 M; the “IC50 [M], NFκB-luciferase, 600 pM hIL-36β” value amounted to 1.2e-10 M; the “Max Inhibition (%), NFκB-luciferase, 300 pM hIL-36γ” value was 100%. Besides, in assay [3], the “Max Inhibition (%), NFκB-luciferase, 500 pM hIL-36α” value is 100% and the “Max Inhibition (%), NFκB-luciferase, 600 pM hIL-36β” value amounted to 100%. In assay [4], the “IC50 [M], NFκB-luciferase, 10 pM hIL-36γ” value stood at 1.2e-10 M; the “IC50 [M], NFκB-luciferase, 15 pM hIL-36β” value was 1.2e-10 M; the “IC50 [M], NFκB-luciferase, 20 pM hIL-36α” value turned out to be 1e-10 M; the “Max Inhibition (%), NFκB-luciferase, 10 pM hIL-36γ” value came out at 99%. In assay [4], the “Max Inhibition (%), NFκB-luciferase, 15 pM hIL-36β” value was 101% and the “Max Inhibition (%), NFκB-luciferase, 20 pM hIL-36α” value was found to be 101%. Further, in assay [5], the “100 nM hIL-36R-MMH Bound (RU)” value came out at 113 RU, the dissociation constant (Kd) amounted to 8.65 nM, the koff was found to be 0.0013 s⁻¹ and the kon worked out at 150000 M⁻¹ s⁻¹. Besides, in assay [5], the “t½” value is 9 min.

B2: H4H14708P2 (antibody, human IgG4 S228P, kappa, V domains shown)
VH: EVQLVESGGDLVQPGRSLRLSCAASGFTFDDYAMHWVRQAPGKGLEWVSVISWNSDVIAYSDSVKGRFTISRDNAKNSLYLQMNSLRTEDTALYYCTKGHKWSFFDYWGQGTLVTVSS
VL: EIVLTQSPATLSLSPGERATLSCRASQSISSYLAWYQQKPGQAPRLLIFNVANRATDIPARFSGSGSGTDFTLTISSLEPEDFAVYYCQQRSNWPLTFGGGTKVEIKR
Regarding B2, the “IC50, IL-8 production of primary human cells stimulated with 10 nM IL-36α, β and γ” value in assay [1] was 1 to 6 nM. Moreover, in assay [2], the “100 nM hIL-36R-MMH Bound (RU)” value came to 76 RU, the equilibrium dissociation constant (Kd) amounted to 6.82 nM, the koff worked out at 0.000623 s⁻¹ and the on-rate (kon) was found to be 91400 M⁻¹ s⁻¹. Besides, the “t½” value in assay [2] is 19 min. Moreover, in assay [3], the “IC50 [M], NFκB-luciferase, 300 pM hIL-36γ” value was determined as 1.2e-10 M; the “IC50 [M], NFκB-luciferase, 500 pM hIL-36α” value came out at 8.9e-11 M; the “IC50 [M], NFκB-luciferase, 600 pM hIL-36β” value came out at 1.2e-10 M; the “Max Inhibition (%), NFκB-luciferase, 300 pM hIL-36γ” value came out at 100%. Further, in assay [3], the “Max Inhibition (%), NFκB-luciferase, 500 pM hIL-36α” value turned out to be 99% and the “Max Inhibition (%), NFκB-luciferase, 600 pM hIL-36β” value amounted to 100%. In assay [4], the “IC50 [M], NFκB-luciferase, 10 pM hIL-36γ” value is 1.6e-10 M; the “IC50 [M], NFκB-luciferase, 15 pM hIL-36β” value came out at 2e-10 M; the “IC50 [M], NFκB-luciferase, 20 pM hIL-36α” value was 1.3e-10 M; the “Max Inhibition (%), NFκB-luciferase, 10 pM hIL-36γ” value is 99%. In assay [4], the “Max Inhibition (%), NFκB-luciferase, 15 pM hIL-36β” value was 100% and the “Max Inhibition (%), NFκB-luciferase, 20 pM hIL-36α” value came to 101%. Also, in assay [5], the “100 nM hIL-36R-MMH Bound (RU)” value is 106 RU, the Kd worked out at 13.6 nM, the off-rate (koff) turned out to be 0.00186 s⁻¹ and the kon is 136000 M⁻¹ s⁻¹. Moreover, the “t½” value in assay [5] was found to be 6 min.

B3: H4H14708P2 (antibody, human IgG4 S228P, kappa, V domains shown)
VH: EVQLVESGGDLVQPGRSLRLSCAASGFTFDDYAMHWVRQAPGKGLEWVSVISWNSDVIAYSDSVKGRFTISRDNAKNSLYLQMNSLRTEDTALYYCTKGHKWSFFDYWGQGTLVTVSS
VL: EIVLTQSPATLSLSPGERATLSCRASQSISSYLAWYQQKPGQAPRLLIFNVANRATDIPARFSGSGSGTDFTLTISSLEPEDFAVYYCQQRSNWPLTFGGGTKVEIKR
B3: in assay [6], the “IC50 [M], IL-8 production, InMyoFib stimulated with 10 nM hIL-36α” value stood at 5.72e-09 M; the “IC50 [M], IL-8 production, InMyoFib stimulated with 10 nM hIL-36β” value came out at 5.3e-09 M; the “IC50 [M], IL-8 production, InMyoFib stimulated with 10 nM hIL-36γ” value came to 6.4e-09 M; the “IC50 [M], IL-8 production, NHEK stimulated with 10 nM hIL-36α” value worked out at 5.06e-09 M. For the same molecule, in assay [6], the “IC50 [M], IL-8 production, NHEK stimulated with 10 nM hIL-36β” value is 5.79e-09 M; the “IC50 [M], IL-8 production, NHEK stimulated with 10 nM hIL-36γ” value was 3.63e-09 M; the “IC50 [M], IL-8 production, PB-derived CD14+ Monocytes stimulated with 10 nM hIL-36α” value amounted to 2.38e-09 M; the “IC50 [M], IL-8 production, PB-derived CD14+ Monocytes stimulated with 10 nM hIL-36β” value was determined as 2.24e-09 M. The “IC50 [M], IL-8 production, PB-derived CD14+ Monocytes stimulated with 10 nM hIL-36γ” value in assay [6] was found to be 1.95e-09 M.

B4: H4H14706P2 (antibody, human IgG4 S228P, kappa, V domains shown)
VH: EVQLVESGGGLVQPGRSLRLSCTASGFTFDDYAIHWVRQSPGKGLEWVSVISWNSDVIGYADSVKGRFTISRDNAKNSLYLQMNSLRAEDTALYYCAKGYNWNFFDYWGQGTLVTVSS
VL: EIVLTQSPATLSLSPGERATLSCRASQSVSSYLAWYQQKPGQAPRLLIYNAANRATDIPARFSGSGSGTDFTLTISSLEPEDFAVYYCQQRSNWPLTFGGGTKVEIKR
Take B4: in assay [6], the “IC50 [M], IL-8 production, InMyoFib stimulated with 10 nM hIL-36α” value was found to be 4.89e-09 M; the “IC50 [M], IL-8 production, InMyoFib stimulated with 10 nM hIL-36β” value was determined as 3.62e-09 M; the “IC50 [M], IL-8 production, InMyoFib stimulated with 10 nM hIL-36γ” value is 4.59e-09 M; the “IC50 [M], IL-8 production, NHEK stimulated with 10 nM hIL-36α” value worked out at 4.42e-09 M. Further, in assay [6], the “IC50 [M], IL-8 production, NHEK stimulated with 10 nM hIL-36β” value came out at 3.62e-09 M; the “IC50 [M], IL-8 production, NHEK stimulated with 10 nM hIL-36γ” value is 2.11e-09 M; the “IC50 [M], IL-8 production, PB-derived CD14+ Monocytes stimulated with 10 nM hIL-36α” value turned out to be 1.15e-09 M; the “IC50 [M], IL-8 production, PB-derived CD14+ Monocytes stimulated with 10 nM hIL-36β” value was 1.74e-09 M. In addition, the “IC50 [M], IL-8 production, PB-derived CD14+ Monocytes stimulated with 10 nM hIL-36γ” value in assay [6] was 1.58e-09 M.
